Drawing on patent publication US20230265148A1, this text covers MFI for one substance.

For this test, the target named is human IL-2 receptor αβγ trimer on CHO-K1 cells (CHO-K1 hIL-2R αβγ 2D6) (human) (UniProt P01589). In words: FACS on CHO-K1 hIL-2R αβγ 2D6 cells.

Values joined by “and” are separate entries in the source; they are usually repeats but may differ in a detail not shown here. Identical values can stand only once.

Chain of UniProt P01589 (P01589 22-272 limits assumed, chain 1 of 3): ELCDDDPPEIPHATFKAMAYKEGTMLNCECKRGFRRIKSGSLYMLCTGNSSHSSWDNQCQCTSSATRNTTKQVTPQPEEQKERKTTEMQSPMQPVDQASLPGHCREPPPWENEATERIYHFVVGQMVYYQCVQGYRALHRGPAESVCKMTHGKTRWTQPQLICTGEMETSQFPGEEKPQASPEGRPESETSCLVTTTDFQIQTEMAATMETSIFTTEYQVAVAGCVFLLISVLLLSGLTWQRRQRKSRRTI
Chain of UniProt P01589 (chain, as listed by the source limits assumed, chain 2 of 3): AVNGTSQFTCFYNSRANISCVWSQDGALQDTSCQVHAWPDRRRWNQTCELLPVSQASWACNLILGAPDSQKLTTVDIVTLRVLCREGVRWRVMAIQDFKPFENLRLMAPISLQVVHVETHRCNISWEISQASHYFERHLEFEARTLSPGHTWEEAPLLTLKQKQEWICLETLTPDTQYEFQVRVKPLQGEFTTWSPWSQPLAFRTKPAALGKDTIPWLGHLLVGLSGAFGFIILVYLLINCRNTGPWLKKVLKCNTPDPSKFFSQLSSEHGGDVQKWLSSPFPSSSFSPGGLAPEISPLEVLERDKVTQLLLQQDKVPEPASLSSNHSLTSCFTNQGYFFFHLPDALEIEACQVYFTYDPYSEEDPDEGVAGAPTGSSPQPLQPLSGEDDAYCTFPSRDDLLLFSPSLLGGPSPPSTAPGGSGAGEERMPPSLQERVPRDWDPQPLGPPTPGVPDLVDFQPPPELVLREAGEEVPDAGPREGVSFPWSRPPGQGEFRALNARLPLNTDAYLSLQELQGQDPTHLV
Chain of UniProt P01589 (chain, as listed by the source limits assumed, chain 3 of 3): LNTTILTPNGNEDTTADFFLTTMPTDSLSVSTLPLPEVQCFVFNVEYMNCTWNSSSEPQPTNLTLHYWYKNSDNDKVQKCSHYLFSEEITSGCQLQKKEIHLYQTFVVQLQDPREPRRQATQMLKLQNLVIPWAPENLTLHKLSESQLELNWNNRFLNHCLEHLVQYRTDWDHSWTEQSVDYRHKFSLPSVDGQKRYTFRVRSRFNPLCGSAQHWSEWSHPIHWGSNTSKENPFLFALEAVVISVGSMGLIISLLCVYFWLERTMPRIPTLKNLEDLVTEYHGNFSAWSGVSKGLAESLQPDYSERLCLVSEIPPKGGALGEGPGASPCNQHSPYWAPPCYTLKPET

Regarding Human IgG control (antibody), the MFI at 0.0003 nM was 146 MFI; the MFI at 0.0017 nM is 120 MFI and 140 MFI; the MFI at 0.0085 nM was 119 MFI and 145 MFI; the MFI at 0.0427 nM is 274 MFI and 144 MFI. Further, the MFI at 0.2133 nM is 181 MFI and 139 MFI; the MFI at 1.0667 nM was 157 MFI and 138 MFI; the MFI at 5.3333 nM was 124 MFI and 136 MFI; the MFI at 26.667 nM was 118 MFI and 187 MFI.
